The values below come from patent US20240352100A1 (AJOU UNIVERSITY INDUSTRY ACADEMIC COOPERATION FOUNDATION, published 2024).

For test [1], the target named is β-catenin (endogenous, in colon cancer cell lines) (human) (UniProt P35222). As to the kind of experiment: cell-based or functional assay.
For test [2], the target named is T1, His8-Avi-tag-β-catenin (recombinant, biotinylated, from E. coli) (human, UniProt P35222 1-781, limits assumed, biotinylated (Avi-tag, co-expressed with pBirAcm in the presence of D-Biotin)).
T1 construct: also called purified β-catenin; recombinant antigen protein β-catenin; not shown: His8-Avi tag
T1 sequence (looked up): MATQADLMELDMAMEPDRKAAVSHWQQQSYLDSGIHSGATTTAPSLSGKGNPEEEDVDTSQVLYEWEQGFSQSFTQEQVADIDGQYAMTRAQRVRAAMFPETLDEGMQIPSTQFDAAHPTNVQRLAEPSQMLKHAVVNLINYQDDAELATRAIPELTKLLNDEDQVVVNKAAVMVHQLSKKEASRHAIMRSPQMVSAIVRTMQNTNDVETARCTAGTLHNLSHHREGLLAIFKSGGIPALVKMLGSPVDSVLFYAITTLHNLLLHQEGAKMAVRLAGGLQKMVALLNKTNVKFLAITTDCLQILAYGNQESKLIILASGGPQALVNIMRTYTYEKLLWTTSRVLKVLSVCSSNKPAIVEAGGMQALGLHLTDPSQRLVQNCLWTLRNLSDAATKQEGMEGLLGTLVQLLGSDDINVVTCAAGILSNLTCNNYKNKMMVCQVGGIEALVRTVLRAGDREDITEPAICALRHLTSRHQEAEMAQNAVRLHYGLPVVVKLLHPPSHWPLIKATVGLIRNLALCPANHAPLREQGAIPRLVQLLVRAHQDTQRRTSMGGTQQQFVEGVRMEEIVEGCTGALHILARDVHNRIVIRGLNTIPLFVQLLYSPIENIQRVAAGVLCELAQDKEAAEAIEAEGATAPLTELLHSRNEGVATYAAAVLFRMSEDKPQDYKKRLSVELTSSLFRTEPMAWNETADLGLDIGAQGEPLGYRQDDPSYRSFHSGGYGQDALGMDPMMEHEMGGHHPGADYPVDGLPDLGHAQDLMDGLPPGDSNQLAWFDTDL
As to the kind of experiment: BLI (Octet QKe), antibody captured on AHC sensor, β-catenin 200-12.5 nM, 1:1 model. For orientation: Biolayer interferometry detects binding as a change in optical thickness at a sensor tip.

Test [3] has as its target T1, His8-Avi-tag-β-catenin (recombinant, …). As to the kind of experiment: BLI (Octet QKe): antibody captured on AHC sensor, β-catenin at 200, 100, 50, 25, 12.5 nM, 1:1 binding model.

Numbering of substitutions follows the chain as printed.

In general, Kd refers to a measure of binding affinity in units of concentration. The koff is the rate constant with which the complex falls apart. In general, kon refers to the second-order rate constant of association.

Consider inBC2-(A6)-VHL152-213 (antibody), for which, in test [1], the β-catenin degradation activity (Western blot, HCT116, 2 µM, 12 h) came out at 25%.
In test [1], inBC2-SOCS2153-198 (antibody) gave a β-catenin degradation ability (Western blot, three colon cancer cell lines) of 40% and a β-catenin degradation ability compared to inBC2-VHL152-213 (Western blot) (% higher than inBC2-VHL152-213) of 20.
For the molecule inBC2-(G10)-VHL152-213 (antibody), the β-catenin degradation activity (Western blot, HCT116, 2 µM, 12 h) in test [1] is 8%.
In test [1], inBC2-VHL152-213 (antibody) gave a decrease in the amount of β-catenin (Western blot, HCT116, with or without MLN4924 or Bortezomib) of 30%; a β-catenin degradation activity (Western blot, DLD-1, 2 µM, 12 h) of 15%; a β-catenin degradation activity (Western blot, HCT116, 2 µM, 12 h) of 36%; a β-catenin degradation activity (Western blot, SW480, DLD-1, HCT116) of 20%. This molecule also yielded a β-catenin degradation activity over time (Western blot, DLD-1, 2 µM) in test [1] of 25%.
In test [1], inBC2-(G5)-VHL152-213 (antibody) displayed a β-catenin degradation activity (Western blot, HCT116, 2 µM, 12 h) of 5%.

B1: inBC0 (antibody, V domains shown)
VH: QVQLVESGGGVVQPGRSLRLSCAASGFTFSSYPMHWVRQAPGKGLEWVAVVSYDGSYKYYADSVKGRLTISRDNSKNTLYLQMNSLRAEDTAVYYCARATVRGVTKIRGVFDSWGRGALVTVSS
VL: DYQLTQSPSSLSASVGDRVTITCKSSQSLLNSRDGKNYLAWYQQKPGKAPKMLIYWASTRESGVPSRFSGSGSGTDFTLTISSLQPEDFATYFCQQYWYWMFTFGQGTKVEIKR
notes: Complete immunoglobulin made by putting the anti-β-catenin VH into inRas37; also called anti-β-catenin cytosol-penetrating interfering antibody inBC0
For the molecule B1, in test [2], the Kd turned out to be 5.75 nM. Besides, in test [3], the koff was 0.000233 s⁻¹ and the on-rate (kon) is 40500 M⁻¹ s⁻¹.

B2: inBC2 (antibody, V domains shown)
VH: B1 VH with R116Q, A118T
VL: B1 VL
notes: Complete immunoglobulin; FR4 back-mutated form of inBC0; also called anti-β-catenin cytosol-penetrating interfering antibody inBC2; anti-β-catenin iMab
Turning to B2, the Kd in test [2] stood at 4.92 nM. Also, in test [3], the koff was 0.000219 s⁻¹ and the kon is 44600 M⁻¹ s⁻¹.
